According to the supplement of paper PMC10126150:
± gives the standard deviation of the averaged measurements.

System: ATP
Test: switch fluorescence ratio, 500 uM ATP over buffer (Cy3 cluster intensity, sum of 5 cycles each) (fold (ratio)); higher = stronger signal-on switching upon ATP binding; sequences stand for … in TCGTCGGCAGCGTCAGATGTGTATAAGAGACAGTTTTTTTTTTTTTTTTTTTTTTTTT…TC
Conditions: aptamer strand: ATP DNA aptamer (quencher-CACCTGGGGGAGTATTGCGGAGGAAGG + anchor), 100 nM annealed; ATP concentration: 500 uM
Procedure, shortened: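 Values give the fluorescence ratio for each switch-domain sequence, averaged from per-cluster ratios of summed target-cycle to summed buffer-cycle Cy3 intensity. The Cy3-labelled switching-strand clusters sat on a modified Illumina MiSeq flow-cell, were annealed to 100 nM quencher-labelled ATP aptamer, and were imaged in selection buffer, then after 15 min with 500 uM ATP at 22 °C. Five cycles ran with NaOH stripping and re-annealing between them, and clusters outside 100-1000 RFU were excluded.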
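Note: ATP exposure 15 min at 22 °C before imaging.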

Row | Sequence | switch fluorescence ratio
1 | CCTGTAATGT | 1.12 ± 0.042
2 | CCTGTAGGCC | 0.998 ± 0.027
3 | CCTGTGGACG | 0.914 ± 0.048
4 | CCTGTGTAGC | 1.092 ± 0.0031
5 | CCTGTTCGCT | 1.21 ± 0.014
6 | CCTGTTCGGC | 1.02 ± 0.038
7 | CCTGTTGGGG | 0.991 ± 0.039
8 | CCTGTTTTTT | 1.02 ± 0.022
9 | CCTTAATTTT | 1.01 ± 0.019
10 | CCTTAGTGTT | 1.03 ± 0.015
11 | CCTTCTGCCG | 1.203 ± 0.0042
12 | CCTTCTGGGG | 1.12 ± 0.051
13 | CCTTGAAAGG | 1 ± 0.011
14 | CCTTGAATCG | 0.978 ± 0.023
15 | CCTTGAGGGA | 1.06 ± 0.11
16 | CCTTGGACGG | 1.03 ± 0.02
17 | CCTTGGATTG | 0.9851 ± 0.0018
18 | CCTTGGGACG | 0.992 ± 0.062
19 | CCTTGGTCTT | 0.9979 ± 0.009
20 | CCTTGTGCAG | 1.25 ± 0.018
21 | CCTTGTTATC | 1.1 ± 0.1
22 | CCTTTCGGCT | 1.068 ± 0.0038
23 | CCTTTGGAGG | 0.981 ± 0.016
24 | CCTTTGGTTA | 1.03 ± 0.028
25 | CCTTTGGTTT | 0.982 ± 0.013

Row | Sequence | switch fluorescence ratio
26 | CCTTTTACTT | 1.03 ± 0.032
27 | CCTTTTGGGG | 1.03 ± 0.061
28 | CCTTTTTGTC | 1.12 ± 0.06
29 | CCTTTTTTAT | 1.03 ± 0.085
30 | CCTTTTTTTT | 1.01 ± 0.011
31 | CGAAAAGGAG | 1.01 ± 0.015
32 | CGAAAATCTT | 0.9949 ± 0.0095
33 | CGAAACTTTG | 0.974 ± 0.046
34 | CGAAAGCGGC | 1.23 ± 0.014
35 | CGAAATCGGG | 1.02 ± 0.018
36 | CGAACCGGCG | 1.03 ± 0.017
37 | CGAACGCCTG | 1.1 ± 0.036
38 | CGAACTGAGG | 0.985 ± 0.014
39 | CGAACTGCGT | 1.02 ± 0.034
40 | CGAAGAGGTG | 1.07 ± 0.021
41 | CGAAGCTTTT | 1.089 ± 0.003
42 | CGAAGGAATC | 1.78 ± 1.1
43 | CGAAGGATTT | 1.003 ± 0.0041
44 | CGAAGGCGTG | 1 ± 0.018
45 | CGAAGGGGAA | 1.03 ± 0.099
46 | CGAAGGGGTA | 0.987 ± 0.018
47 | CGAAGGTTAG | 0.987 ± 0.024
48 | CGAAGGTTGC | 1.01 ± 0.04
49 | CGAAGGTTTG | 0.945 ± 0.058
50 | CGAAGTCGGG | 0.955 ± 0.015

Row | Sequence | switch fluorescence ratio
51 | CGAAGTCGTC | 1.02 ± 0.021
52 | CGAAGTCTTT | 0.989 ± 0.044
53 | CGAAGTTATA | 1.19 ± 0.038
54 | CGAATATAAA | 0.994 ± 0.054
55 | CGAATATACG | 1.04 ± 0.021
56 | CGAATATCAT | 0.9747 ± 0.0047
57 | CGAATATGAT | 1.02 ± 0.058
58 | CGAATATTGA | 0.959 ± 0.038
59 | CGAATTGATA | 1.01 ± 0.013
60 | CGAATTTGCT | 1.01 ± 0.0079
61 | CGACAAAAAT | 1.89 ± 1
62 | CGACACCGTG | 1.025 ± 0.0013
63 | CGACACTTAG | 1.049 ± 0.0091
64 | CGACATCGCA | 1.321 ± 0.0068
65 | CGACATGAAT | 1.037 ± 0.0082
66 | CGACATTGAG | 0.967 ± 0.012
67 | CGACATTGCA | 1.09 ± 0.022
68 | CGACCAGATA | 1.078 ± 0.0037
69 | CGACCATTAA | 1.264 ± 0.0043
70 | CGACCCTGGA | 1.105 ± 0.01
71 | CGACCTTGGC | 1.02 ± 0.1
72 | CGACGAATAG | 1.29 ± 0.063
73 | CGACGACAGG | 1.35 ± 0.024
74 | CGACGTATTG | 1.02 ± 0.03
75 | CGACGTTAGT | 0.995 ± 0.025

Row | Sequence | switch fluorescence ratio
76 | CGACTAAAAT | 1.013 ± 0.0066
77 | CGACTATCGC | 1.12 ± 0.06
78 | CGACTGCAGT | 1.19 ± 0.014
79 | CGACTGGCTG | 1.01 ± 0.049
80 | CGAGAACTGG | 1.09 ± 0.14
81 | CGAGAAGTTC | 1.02 ± 0.091
82 | CGAGACAGGA | 1.007 ± 0.0017
83 | CGAGAGGTGG | 1.04 ± 0.055
84 | CGAGATTGGT | 0.973 ± 0.016
85 | CGAGCATTGA | 1.12 ± 0.012
86 | CGAGCATTGT | 1.16 ± 0.031
87 | CGAGCATTTA | 1.325 ± 0.012
88 | CGAGCGGCTA | 1.016 ± 0.0013
89 | CGAGCGGTTG | 0.999 ± 0.013
90 | CGAGCTCCAT | 1.015 ± 0.0054
91 | CGAGGAAAGG | 0.9865 ± 0.0089
92 | CGAGGAAATG | 1.06 ± 0.011
93 | CGAGGCAAGT | 5.07 ± 1.3
94 | CGAGGCTCGT | 1.02 ± 0.065
95 | CGAGGGATGT | 0.982 ± 0.034
96 | CGAGGGATTT | 1.05 ± 0.013
97 | CGAGGGCTAG | 1.04 ± 0.074
98 | CGAGGGCTGA | 1.02 ± 0.015
99 | CGAGGGGACG | 1 ± 0.013
100 | CGAGGGGAGT | 1.006 ± 0.0011

Row | Sequence | switch fluorescence ratio
101 | CGAGGGGGGA | 0.996 ± 0.028
102 | CGAGGGGTAG | 0.996 ± 0.026
103 | CGAGGGTAAC | 0.983 ± 0.029
104 | CGAGGGTACG | 1 ± 0.032
105 | CGAGGTTGAC | 1.0385 ± 0.00054
106 | CGAGTAAACG | 1.02 ± 0.017
107 | CGAGTAAATG | 1.01 ± 0.021
108 | CGAGTACTGG | 1.03 ± 0.016
109 | CGAGTATTGG | 0.974 ± 0.018
110 | CGAGTCCCCT | 1.04 ± 0.033
111 | CGAGTGGGGG | 0.987 ± 0.029
112 | CGAGTGTGTG | 0.97 ± 0.024
113 | CGAGTTACGG | 1.01 ± 0.019
114 | CGAGTTAGGC | 1.03 ± 0.063
115 | CGAGTTGATC | 0.973 ± 0.028
116 | CGAGTTTG | 0.98 ± 0.056
117 | CGAGTTTTTG | 0.979 ± 0.014
118 | CGATAAATTA | 0.9971 ± 0.0044
119 | CGATAATGAA | 1 ± 0.029
120 | CGATACGGTG | 1.07 ± 0.035
121 | CGATACGTTG | 0.99 ± 0.011
122 | CGATAGATGT | 1 ± 0.024
123 | CGATAGTATT | 0.9854 ± 0.0063
124 | CGATATAGGA | 0.992 ± 0.011
125 | CGATATCGAG | 0.98 ± 0.051

Row | Sequence | switch fluorescence ratio
126 | CGATATCGTG | 1 ± 0.019
127 | CGATATGATG | 1.01 ± 0.062
128 | CGATATGGGG | 1.01 ± 0.057
129 | CGATATGGGT | 0.9801 ± 0.0026
130 | CGATATTGCA | 1.02 ± 0.025
131 | CGATCCAGTG | 1.39 ± 0.061
132 | CGATGAAGGC | 1.07 ± 0.031
133 | CGATGATATT | 1.02 ± 0.053
134 | CGATGATCGG | 1 ± 0.016
135 | CGATGCACGG | 1.106 ± 0.0049
136 | CGATGCATGG | 1.71 ± 0.19
137 | CGATGCTACA | 1.06 ± 0.048
138 | CGATGGGATA | 1.03 ± 0.02
139 | CGATGGGCCT | 1.01 ± 0.024
140 | CGATGGGTCG | 1 ± 0.066
141 | CGATGGTGAG | 1 ± 0.047
142 | CGATGTGAGA | 1.04 ± 0.022
143 | CGATGTGCTT | 1.01 ± 0.024
144 | CGATGTGTGC | 1.17 ± 0.0054
145 | CGATGTGTGT | 0.991 ± 0.035
146 | CGATTAAGAT | 1.02 ± 0.021
147 | CGATTAAGGC | 1.003 ± 0.0026
148 | CGATTACTCC | 2.82 ± 0.089
149 | CGATTATTAT | 0.975 ± 0.031
150 | CGATTCGGGG | 1.01 ± 0.03

Row | Sequence | switch fluorescence ratio
151 | CGATTCGGTA | 1.01 ± 0.042
152 | CGATTCTTTT | 0.979 ± 0.01
153 | CGATTGCTAG | 1.02 ± 0.058
154 | CGATTGGGGT | 1.02 ± 0.034
155 | CGATTTCGTT | 0.984 ± 0.013
156 | CGATTTGCCT | 0.9806 ± 0.006
157 | CGATTTGGGC | 0.982 ± 0.021
158 | CGATTTTGA | 0.969 ± 0.043
159 | CGATTTTGGA | 0.9941 ± 0.0078
160 | CGCAAAAAGT | 1.0219 ± 0.00086
161 | CGCAAAGAAG | 1.08 ± 0.02
162 | CGCACCATGC | 2.41 ± 0.073
163 | CGCACCCTTT | 1.093 ± 0.0056
164 | CGCACGGTAG | 1.05 ± 0.032
165 | CGCACTGTGG | 1.028 ± 0.0031
166 | CGCAGAGGCT | 1.06 ± 0.044
167 | CGCAGAGTGG | 1.01 ± 0.018
168 | CGCAGGAAAG | 0.973 ± 0.0023
169 | CGCAGGATTT | 1.09 ± 0.19
170 | CGCAGGCCTC | 1.47 ± 0.062
171 | CGCAGGGTGG | 1.05 ± 0.022
172 | CGCAGGTGGG | 1.08 ± 0.042
173 | CGCAGGTTTG | 1.03 ± 0.011
174 | CGCAGTTCTT | 1.198 ± 0.0086
175 | CGCATTTTTT | 1.13 ± 0.12

Row | Sequence | switch fluorescence ratio
176 | CGCCAAATTT | 1.07 ± 0.1
177 | CGCCACTGTG | 1.06 ± 0.044
178 | CGCCCCTGTA | 1.04 ± 0.035
179 | CGCCGGGTTG | 0.984 ± 0.033
180 | CGCCGTGTCA | 1.02 ± 0.068
181 | CGCCTGTTAG | 0.99 ± 0.016
182 | CGCGAAAGAA | 0.9682 ± 0.0033
183 | CGCGAACATG | 0.984 ± 0.049
184 | CGCGAAGGCT | 1.04 ± 0.015
185 | CGCGAATATA | 1 ± 0.019
186 | CGCGAATTTG | 1.02 ± 0.021
187 | CGCGACTAAA | 0.9951 ± 0.0066
188 | CGCGAGGCGT | 1.07 ± 0.12
189 | CGCGATAGTA | 1.27 ± 0.026
190 | CGCGATGGGT | 1.08 ± 0.033
191 | CGCGATGTAC | 3.82 ± 0.15
192 | CGCGCAGGGA | 1.03 ± 0.013
193 | CGCGCGGTTT | 1.02 ± 0.041
194 | CGCGCTTTTG | 1.01 ± 0.017
195 | CGCGGACGGT | 1.05 ± 0.052
196 | CGCGGATTGG | 0.9903 ± 0.0094
197 | CGCGGCAAGG | 1.32 ± 0.31
198 | CGCGGGAGGG | 1.04 ± 0.022
199 | CGCGGGGGGA | 1.03 ± 0.06
200 | CGCGGGGGTG | 1.03 ± 0.024
